Data set [1] deals with RpaB (Synechocystis sp. PCC 6803?). Description: EMSA. Conditions: EMSA: 12 mM HEPES, 4 mM Tris, 12 mM KCl, 1 mM EDTA, 1 mM EGTA, 12% glycerol, 1 ug poly(dIdC); 3% agarose, 0.5x TBE; pH 8.2 or 5 tested; probe 3.85 pmol ….
Data set [2] deals with cyAbrB1 (Sll0359), N-terminally 6*His-tagged recombinant protein (Synechocystis sp. PCC 6803). Put plainly: native gel or EMSA; native SDS-PAGE (NSDS-PAGE) of the purified recombinant protein; native glycine polyacrylamide gel (15%, SDS omitted), running buffer 50 mM Tris-HCl, 200 mM glycine, 0.0375% SDS, pH 7.3, 4°C. Background: Mobility shift assays separate free from complexed probe on a gel.

By Kd is commonly meant the equilibrium constant for the complex coming apart. A higher Kd goes with weaker binding. In turn, “TTTGCCCAATTTGACAATATATTAAGAAATCCTCATCTAACCTGTTTTTCATTGGATAATTAAAACAAGAGGAAAGATCAGGGGGCAGGAAAATAAATTACCTAATACCTAGTCCTGGTTGATAAAACCAGAGGCAGAAAACCTCCCCGTTTTCTCAAACTTGCCCAAAAGACAACTGTTGAGTTTCCCCCATTGGGACGGAGGTTATG (double strand) [PatpT66-5'UTR]” returned a Kd in data set [1] of 5.62 µM.
By stoichiometry N is commonly meant a count of units in the complex or per binding partner. Regarding “cyAbrB1 (Sll0359), N-terminally 6*His-tagged recombinant protein (natural protein)”, the stoichiometry N in data set [2] worked out at 2.

The values are drawn from publication PMC9241938.
